Measurements: patent US20150337031A1 (CELYAD S A, published 2015)

Experiments:
[1] = molecular target: T1, alanine scanning mutant of the MEF2C peptide of SEQ ID NO: 2, asparagine at position 4 replaced by alanine (human); test: indirect ELISA on coated alanine mutant peptides (FIG. 7)
T1 construct: Member of the alanine scanning peptide library; also called mutation at peptide position 4
T1 peptide: GNPALLPLAHPSL
Protocol: (§1) ELISA was performed to map the epitope of the test antibody. The peptides were coated in 96-well microtiter plates at 4° C. for 16 h. The plates were then blocked with 5% MPBS at 37° C. for 2 h. After washed with PBS-T, 100 μl target/control antibody (0.5 μg/ml) was added and incubated at 37° C. for 2 h. The plates were washed with PBS-T and incubated with 100 μl of 0.1 μg/ml goat anti-mouse IgG (H+L) at 37° C. for 1 h. The plates were washed with PBS-T and incubated with rabbit anti goat IgG (H+L) [HRP] at 37° C. for 1 h. After washing the plate with PBS-T, the color was developed with 100 μl TMB substrate for 10 minutes. The reaction was stopped by adding 100 μl of 1 M HCl and the absorbance was measured at 450 nm using a spectrometer. […] A non-coated well was set as blank control and the peptide library incubated with the detection antibodies only was set as the negative control.
(§2) Thirteen mutant peptides were numbered in numerical order and their binding activity with target/control antibodies were determined by indirect ELISA. The non-specific binding between the peptide, the target antibody and rabbit anti-goat IgG [HRP] was determined. The non-specific binding between the peptide, goat anti-mouse IgG and rabbit anti-goat IgG [HRP] was determined as well.

[2] = molecular target: T2, alanine scanning mutant of the MEF2C peptide of SEQ ID NO: 2, asparagine at position 2 replaced by alanine (human); test: as above
T2 construct: Member of the alanine scanning peptide library; also called mutation at peptide position 2
T2 peptide: GAPNLLPLAHPSL
Protocol: as §1, §2

[3] = molecular target: T3, alanine scanning mutant of the MEF2C peptide of SEQ ID NO: 2, proline at position 3 replaced by alanine (human); test: as above
T3 construct: Member of the alanine scanning peptide library; also called mutation at peptide position 3
T3 peptide: GNANLLPLAHPSL
Protocol: as §1, §2

[4] = molecular target: T4, alanine scanning mutant of the MEF2C peptide of SEQ ID NO: 2, leucine at position 5 replaced by alanine (human); test: as above
T4 construct: Member of the alanine scanning peptide library; also called mutation at peptide position 5
T4 peptide: GNPNALPLAHPSL
Protocol: as §1, §2

[5] = molecular target: T5, 13 amino acid sequence from human MEF2C (SEQ ID NO: 2), GNPNLLPLAHPSL (human); test: SPR, BIAcore T200, calculated as the inverse of Kd
T5 construct: Synthetic peptide (GenScript); Coated on the plate in ELISA, injected over the immobilised antibody in Biacore; also called wild-type peptide; antigen peptide
T5 peptide: GNPNLLPLAHPSL
Protocol: (§3) Affinity of the antibody for the peptide was measured by using BIAcoreT200. After covalent coupling of the antibody onto the Series S Sensor Chip CM5, different concentrations (0.078, 0.781, 1.563, 3.125 and 6.250 μM) of peptide were injected serially over the antibody and blank flow cell at a flow rate of 30 μl/min. Association and dissociation phases were monitored for 30 and 150 seconds, respectively. Peptide with the concentration of 6.250 μM was set as repetition. The antibody surface was regenerated with 10 mM Glycine-HCl, pH2.0, 30 s injections 1 time.
(§4) About 10000 RU of antibody was immobilized on the sensor chip via primary amine groups. Binding data was processed, double referenced with response from blank injections, and fit to a 1:1 interaction model using the BIAcore T200 evaluation software.

[6] = molecular target: T5, 13 amino acid sequence from human MEF2C …; test: SPR, BIAcore T200, antibody coupled to CM5 chip, peptide injected, 1:1 model
Protocol: as §3, §4

[7] = molecular target: T1, alanine scanning mutant of the MEF2C …; test: direct ELISA, relative quantification against a wild-type peptide standard curve (FIG. 8)
Protocol: as §1
(§5) In addition to the alanine scanning, a relative quantification of binding was performed. Each of the mutated peptides was assayed in direct ELISA according to the procedures described above and compared to a standard curve performed with the wild-type peptide. Relative binding quantification was then performed as described previously. […] Therefore, considering the combination of the data obtained in FIGS. 7 and 8 an epitope target of the anti-MEF2C mAb is the following amino acid sequence: […]

[8] = molecular target: T2, alanine scanning mutant of the MEF2C …; test: as above
Protocol: as §1, §5

[9] = molecular target: T6, alanine scanning mutant of the MEF2C peptide of SEQ ID NO: 2, glycine at position 1 replaced by alanine (human); test: as above
T6 construct: Member of the alanine scanning peptide library synthesised by GenScript; also called mutation of the first residue; G1
T6 peptide: ANPNLLPLAHPSL
Protocol: as §1, §5

[10] = molecular target: T7, alanine scanning mutant of the MEF2C peptide of SEQ ID NO: 2, proline at position 7 replaced by alanine (human); test: as above
T7 construct: Member of the alanine scanning peptide library; also called mutation of the seventh residue; P7
T7 peptide: GNPNLLALAHPSL
Protocol: as §1, §5

[11] = molecular target: T3, alanine scanning mutant of the MEF2C …; test: as above
Protocol: as §1, §5

[12] = molecular target: T4, alanine scanning mutant of the MEF2C …; test: as above
Protocol: as §1, §5

[13] = molecular target: T8, Mutated peptide on Aa L (13th position); test: indirect ELISA on coated peptide, antibody at 0.5 µg/ml, OD450
T8 peptide: GNPNLLPLAHPSA
Protocol: as §1, §2

[14] = molecular target: T9, Mutated peptide on Aa P (11th position); test: as above
T9 peptide: GNPNLLPLAHASL
Protocol: as §1, §2

[15] = molecular target: T10, Mutated peptide on Aa H (10th position); test: as above
T10 peptide: GNPNLLPLAAPSL
Protocol: as §1, §2

[16] = molecular target: T11, Mutated peptide on Aa L (8th position); test: ELISA on coated mutant peptide, relative quantification against a standard curve of the wild-type peptide
T11 peptide: GNPNLLPAAHPSL
Protocol: as §1, §5

[17] = molecular target: T12, Mutated peptide on Aa L (6th position); test: as above
T12 peptide: GNPNLAPLAHPSL
Protocol: as §1, §5

binding result [1]: no binding (tested: 0.5 µg/ml antibody)
binding result [2]: no binding (tested: 0.5 µg/ml antibody)
binding result [3]: no binding (tested: 0.5 µg/ml antibody)
binding result [4]: no binding (tested: 0.5 µg/ml antibody)
Ka [5]: 6.37e+06 M⁻¹
Kd [6]: 0.157 µM
koff [6]: 0.00367 s⁻¹
kon [6]: 23400 M⁻¹ s⁻¹
decrease of the binding relative to the wild-type peptide [7]: > 99%
decrease of the binding relative to the wild-type peptide [8]: > 99%
loss of binding relative to the wild-type peptide [9]: 92.9%
loss of binding relative to the wild-type peptide [10]: 96.4%
decrease of the binding relative to the wild-type peptide [11]: > 99%
decrease of the binding relative to the wild-type peptide [12]: > 99%
binding result [13]: binds
binding result [14]: binds
binding result [15]: binds
binding result [16]: binds
binding result [17]: binds
B1: anti-MEF2C monoclonal antibody produced by the hybridoma cell line deposited with BCCM/LMBP under Accession No. LMBP 9949CB (antibody, V domains shown)
VH: EVQLQQSGPELVKPGASVKISCKASAYSFTGYFMNWVKQSHGKSLEWIGRINPYNGNTFYNQNFKGKATLTVDRSSSTAHMQILSLTSEDSTVYYCGREGATGAMDYWGQGTSVTVLP
VL: DVVMTQTPLSLPVSLGDQASISCRSSQSLVHSNGDTYLHWYLQMPGQSPRLLIYKVSNRFSGVPDRFSGSGSGTDFTLKISRVEAEDLGVYFCSQSTHVPPTFGGGTKLEIK
notes: IgG from a mouse hybridoma (detected with anti-mouse IgG); also called anti-MEF2C mAb; α MEF2C
